The values that follow come from patent US20230279105A1 (SINGLE CELL TECHNOLOGY, published 2023).

Residue numbers refer to the chain shown, from its start.

The target in the assay is T1, Human TIM-3 Human Fc tagged protein (human, fluorescently labeled with HiLyte Fluor 555 (sites not given)).
T1 construct: Bought construct; also called TIM-3 protein tagged with human Fc; ACROBiosystems catalog no: TM3-H5258
The experiment in a line: capture slide probed with labeled TIM-3-Fc.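 Further: IgG from single CD138-enriched plasma cells, isolated from lymphocytes, immobilized on a derivatized glass slide.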

B1: SCT-Fa088 (antibody, V domains shown)
VH: QIQLQQSGPELVKPGASVKISCKASGYTFTDYYINWVKQRPGQGLEWIGWIYPGSGNTKYNEKFKGKATLTVDTSSSTAYMQLSSLTSEDSAVYFCARAYDYGFAYWGQGTLVTVSA
VL: SIVMTQTPKFLLVSAGDRVTITCKASQSVSHGVTWYQQKPGQSPKLLISYASNRYTGVPDRFTGSGYGTDFTFTISTVQAEDLAVYFCQQDYSSPYTFGGGTKLEIK
notes: murine IgG
For the molecule B1, the binding result is on record as “binds”.

B2: SCT-Fa086 (antibody, V domains shown)
VH: B1 VH with S77N, A105P
VL: B1 VL with V29M, S30N, H31N, T77A
notes: murine IgG
Turning to B2, the binding result is “binds”.

B3: SCT-Fa087 (antibody, V domains shown)
VH: B1 VH with Q82H
VL: B1 VL with H31Y, A51S, Y67S
notes: murine IgG
Regarding B3, the binding result was “binds”.

B4: SCT-Fa057 (antibody, V domains shown)
VH: EVQLQQSGPVLVKPGASVKMSCKASGYTFTDYYMNWVKQSHGKSLEWIGVINPYNGGTSYNQKFKGKATLTVDKSSSTAYMELNSLTSEDSAVYYCARGGDYDVNYSAMDYWGQGTSVTVSS
VL: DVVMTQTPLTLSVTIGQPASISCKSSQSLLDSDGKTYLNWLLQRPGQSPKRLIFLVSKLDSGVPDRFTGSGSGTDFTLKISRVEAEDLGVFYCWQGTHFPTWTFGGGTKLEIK
notes: murine IgG
With B4, the binding result is on record as “binds”.

B5: SCT-Fa034 (antibody, V domains shown)
VH: EVQLQQSGAELVKPGASVKLSCTDFGFNIKDYYMHWVKQRTEQGLEWIGRIDPEDGETKYVPKFQGKATITADTSSNTAFLHLTSLTSEDTAVYYCARSNPYYFDYWGQGTTLTVSS
VL: DIQMNQSPSSLSASLGDTVTITCHASQTINVWLSWYQQKPGNIPKLLIYKASNLHTGVPSRFSGSGSGTGFTLTISSLQPEDIATYYCQQGQNYPYTFGGGTKLEIK
notes: murine IgG
Consider B5, for which the binding result is “binds”.

B6: SCT-Fa043 (antibody, V domains shown)
VH: EVQLQQSGAELVRPGASVKLSCTASGFNIKDYYMHWVKQRTEQGLEWIGRIDPDNDEIKYAPKFQGKATLTADTSSNTASLQLSGLTSEDTAVYYCARSSPYYFDYWGQGTTLTVSS
VL: B5 VL with V19I, T28N, G68V, Y94I, K103Q
notes: murine IgG
In the case of B6, the binding result is on record as “binds”.

B7: SCT-Fa035 (antibody, V domains shown)
VH: B5 VH
VL: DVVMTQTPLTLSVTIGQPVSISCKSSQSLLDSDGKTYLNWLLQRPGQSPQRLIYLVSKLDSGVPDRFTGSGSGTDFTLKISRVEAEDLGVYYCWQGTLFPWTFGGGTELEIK
notes: murine IgG
For B7, the binding result was “binds”.

B8: SCT-Fa005 (antibody, V domains shown)
VH: EVHLQQSVAEVVRPGASVNLSCTVSGFNNKNTYMYWVKQRPEQGLEWIGIIDPANGNVKYAPKFQGKATITADTSSNTAYLQLSSLTSEDTAIYYCARGSSRLYYALDYWGQGTSVTVSS
VL: DIVLTQSPASLAVSLGQRATISCRASESVDSYGNSFMHWYQQKPGQPPKLLIYRASNLESGIPARFSGSGSRTDFTLTIYPVEADDVATYYCQQSNEDPYTFGGGTKLEIK
notes: murine IgG
As to B8, the binding result is on record as “binds”.

B9: SCT-Fa077 (antibody, V domains shown)
VH: EVRLVESEGGLVQPGSSMKLSCTASGFTFSDYYMAWVRQVPEKGLEWVANINYDGTNTYYLDSLKSRFIISRDNAKNILYLQMSGLKSEDTATYYCGRGIYYYGRSHAMDYWGQGTSVTVSS
VL: DILMTQSPSSMSVSLGDTVSITCHASQGINNNVGWLQQKPGKSFKGLIYHGTNLEDGVPSRFSGSGSGADYSLTIYSLESEDFADYYCVQYDQFPPTFGGGTKLEIK
notes: murine IgG
As to B9, the binding result was “binds”.

B10: SCT-Fa050 (antibody, V domains shown)
VH: EVQLQQSGPMLVKPGASVKMSCKASGNTFTAFYMSWVKQSHGKSLEWIGVVNPYNGGAGYNQKFKGKATLTVDKSSSTAYMELNGLTSEDSAVYYCLLWEFAHWGQGTLVTVSA
VL: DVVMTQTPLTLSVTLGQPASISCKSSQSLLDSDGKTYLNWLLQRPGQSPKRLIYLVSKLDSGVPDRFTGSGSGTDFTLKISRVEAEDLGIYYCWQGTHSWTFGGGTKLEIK
notes: murine IgG
On to B10, for which the binding result was “binds”.

B11: SCT-Fa047 (antibody, V domains shown)
VH: EVQLQQSGPELVKPGASVKISCKASGYTFTDYYMNWVKQSHGKSLEWIGDINLNNGGTVYNQKFRGKATLTVDKSSSTAYMELRSLTSEDSAVYYCEGLGGYWGQGTTLTVSS
VL: DVLMTQTPLSLPVSLGDQVSISCRSSQSIVHSNGNTYLEWYLQKPGQSPNLLIYKVANRLSGVPDRFSGSGSGTDFTLKISRVEAEDLGVYYCFQGSHVPFTFGSGTKLEIK
notes: murine IgG
On to B11, for which the binding result is recorded as “binds”.

B12: SCT-Fa048 (antibody, V domains shown)
VH: B11 VH with F29L, K43E, L53P, G57D, T58I, V59N, R65K, V72A
VL: B11 VL with V19A, S28T, K44T, N50K, A57S, L60I
notes: murine IgG
With B12, the binding result is given as “binds”.

B13: SCT-Fa049 (antibody, V domains shown)
VH: B11 VH with A16S, F29L, K43E, L53P, G57D, T58I, V59N, R65K, V72A
VL: B11 VL with V19A, S28T, K44T, N50K, A57S, L60I
notes: murine IgG
With B13, the binding result was “binds”.

B14: SCT-Fa068 (antibody, V domains shown)
VH: EVQLQQSGTVLARPGASVKMSCKTSGYTFTRYWMHWVKQRPGQGLEWIGAIYPGNSDTNYNQKIKGKAKLTAVTTASTAYMELSSLTNEDSAVYYCTFYYGNYVNYWGQGTTLTVSS
VL: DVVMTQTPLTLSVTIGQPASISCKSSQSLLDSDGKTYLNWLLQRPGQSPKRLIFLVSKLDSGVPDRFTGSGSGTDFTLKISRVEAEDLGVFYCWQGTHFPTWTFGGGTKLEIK
notes: murine IgG
For the molecule B14, the binding result is given as “binds”.

B15: SCT-Fa064 (antibody, V domains shown)
VH: B14 VH with G66D, Y99F
VL: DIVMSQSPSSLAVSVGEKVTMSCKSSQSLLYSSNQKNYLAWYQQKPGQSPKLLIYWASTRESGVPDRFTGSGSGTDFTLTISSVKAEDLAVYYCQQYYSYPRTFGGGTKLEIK
notes: murine IgG
Turning to B15, the binding result was “binds”.

B16: SCT-Fa067 (antibody, V domains shown)
VH: B14 VH
VL: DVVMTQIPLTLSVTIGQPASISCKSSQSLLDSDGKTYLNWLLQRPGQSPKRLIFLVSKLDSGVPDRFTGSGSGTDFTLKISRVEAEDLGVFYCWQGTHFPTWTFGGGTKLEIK
notes: murine IgG
B16: the binding result is reported as “binds”.

B17: SCT-Fa065 (antibody, V domains shown)
VH: B14 VH with S84I
VL: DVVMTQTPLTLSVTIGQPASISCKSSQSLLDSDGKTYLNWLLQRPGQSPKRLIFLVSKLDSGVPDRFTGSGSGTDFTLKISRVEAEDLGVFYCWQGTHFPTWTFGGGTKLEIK
notes: murine IgG
With B17, the binding result is “binds”.

B18: SCT-Fa069 (antibody, V domains shown)
VH: B14 VH with K65Q, G66D, Y99F
VL: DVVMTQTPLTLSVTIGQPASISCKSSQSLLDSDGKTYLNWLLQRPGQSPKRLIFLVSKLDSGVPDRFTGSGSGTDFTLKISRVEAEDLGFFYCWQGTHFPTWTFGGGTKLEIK
notes: murine IgG
Turning to B18, the binding result is recorded as “binds”.

B19: SCT-Fa063 (antibody, V domains shown)
VH: B14 VH with T30I, N59T, I64F, K67R, T75S, Y106F
VL: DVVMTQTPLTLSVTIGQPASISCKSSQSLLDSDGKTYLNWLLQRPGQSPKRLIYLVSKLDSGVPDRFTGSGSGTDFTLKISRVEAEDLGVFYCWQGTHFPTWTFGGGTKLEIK
notes: murine IgG
As for B19, the binding result is “binds”.

B20: SCT-Fa062 (antibody, V domains shown)
VH: B14 VH with S25P
VL: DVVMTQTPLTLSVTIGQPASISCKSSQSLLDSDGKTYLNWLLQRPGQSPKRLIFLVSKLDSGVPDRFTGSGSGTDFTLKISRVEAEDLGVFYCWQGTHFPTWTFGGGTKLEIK
notes: murine IgG
Take B20: the binding result is listed as “binds”.

B21: SCT-Fa066 (antibody, V domains shown)
VH: B14 VH with V93A
VL: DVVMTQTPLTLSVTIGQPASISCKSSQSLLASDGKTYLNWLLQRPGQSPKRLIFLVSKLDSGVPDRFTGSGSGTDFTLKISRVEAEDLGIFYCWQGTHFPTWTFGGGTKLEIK
notes: murine IgG
With B21, the binding result is on record as “binds”.

B22: SCT-Fa053 (antibody, V domains shown)
VH: EVQLQQSGPVLVKPGASVKMSCKASGYSFTGYHMNWVKQSHGKSLEWIGIINPYNSATTYNQKFKGKATLTVDKSSSTAYMELNSLTSEDSVVYYCVRGAYGNPLDYWGQGTTLTVSS
VL: DIKMTQSPSSMYASLGERVTITCKASQDINSYLSWFQQKPGKSPKTLIYRANRLVDGVPSRFSGSGSGQDYSLTISSLEYEDMGIYYCLQYDEYPYTFGGGTKLEIK
notes: murine IgG
Turning to B22, the binding result is “binds”.

B23: SCT-Fa092 (antibody, V domains shown)
VH: QIQLVQSGPEMKKPGETVKISCKASGYTFRTYGMSWVKQAPGKGLEWMGWINTYSGEPTYADDFKGRFAFSLETSANTAYLQINNLKNEDTATFFCARAQHYFDWWGQGTTLTVSS
VL: B22 VL with N30D, S34N, N52T, Y94F
notes: murine IgG
As to B23, the binding result is given as “binds”.

B24: SCT-Fa055 (antibody, V domains shown)
VH: EVQLQQSGPVLVKPGASVKMSCKASGYTFTDYHMNWVKQSHGKSLEWIGVISPYNGGTSQNQKFKGKATLTVDKSSSTAYMELNRLTSEDSAVYYCARSDYGSPLDYWGQGTTLTVSS
VL: B22 VL with S34R, T74N, Y94F
notes: murine IgG
On to B24, for which the binding result is on record as “binds”.

B25: SCT-Fa090 (antibody, V domains shown)
VH: B23 VH with T28I
VL: B22 VL with N30D, S34N, N52T, Y94F
notes: murine IgG
On to B25, for which the binding result is on record as “binds”.

B26: SCT-Fa052 (antibody, V domains shown)
VH: B22 VH with T58S
VL: B22 VL with A51T
notes: murine IgG
Take B26: the binding result is on record as “binds”.

B27: SCT-Fa059 (antibody, V domains shown)
VH: B22 VH with K23Q, A57G, T58I, K67R, S77D, E82D
VL: B22 VL with K3R, M11I, K45E, A51T
notes: murine IgG
Regarding B27, the binding result was “binds”.

B28: SCT-Fa061 (antibody, V domains shown)
VH: B22 VH with K13R, G42V, K63N
VL: B22 VL with Q38L, R61G
notes: murine IgG
Take B28: the binding result is “binds”.

B29: SCT-Fa054 (antibody, V domains shown)
VH: B22 VH with L83V, V92L
VL: B22 VL with V55L
notes: murine IgG
As to B29, the binding result was “binds”.

B30: SCT-Fa046 (antibody, V domains shown)
VH: EVQLQQSGPELVKPGASVKISCKASGYTFTDYNMHWVKQSHGKSLAWIGYIYPYNGGTGYNQKFKNKATLTVDDSSSTAYMDLRSLTSDDSAVYYCAREDYGSREWFAYWGQGTLVTVSA
VL: DVVMTQTPLSLPVSLGDQASISCRSSQSLVHSNGNTYLYWYLQKPGQSPKLLIYKVSNRFSGVPDRFSGSGSGTDFTLKISRVEAEDLGVYFCSQSTHVPLTFGAGTKLELK
notes: murine IgG
Regarding B30, the binding result was “binds”.

B31: SCT-Fa072 (antibody, V domains shown)
VH: EVQLVESGGDLVKPGGSLKLSCAASGFTFSDYGMSWVRQTPDKRLEWVATISSGGSYTYYADSVKGRFTISRDNAKNTLYLQMSSLKSEDTAMYFCTRHEITTVLSTDYAMDYWGQGTSVTVSS
VL: B30 VL with N33I, Y39H, S81I, V99I, L101W, A105G, K112R
notes: murine IgG
On to B31, for which the binding result is “binds”.

B32: SCT-Fa076 (antibody, V domains shown)
VH: EVQVLETGGGLVQPGGSRGLSCEGSGFTFSGFWMSWVRQTPGKTLEWIGDINSDGSTIHYGPSMKDRFTIFRDNDKNTLYLQMNNVRSEDTAKYFCMSLLLNVWGTGTTVTVSS
VL: DIQMTQSPSSLSASLGERVSLTCRASQEISGYLSWLQQKPDGTIKRLISRASSLDFGVPKRFRGSRSGSDYSLTISSLESEDFADYYCLQYANYPLTFGAGTKLELK
notes: murine IgG
B32: the binding result is reported as “binds”.
